Experimental data as given in IntAct's records for PubMed 17875931.

Biological target: itf2_human TCF4 (UniProt P15884)
Sequence (P15884 whole entry): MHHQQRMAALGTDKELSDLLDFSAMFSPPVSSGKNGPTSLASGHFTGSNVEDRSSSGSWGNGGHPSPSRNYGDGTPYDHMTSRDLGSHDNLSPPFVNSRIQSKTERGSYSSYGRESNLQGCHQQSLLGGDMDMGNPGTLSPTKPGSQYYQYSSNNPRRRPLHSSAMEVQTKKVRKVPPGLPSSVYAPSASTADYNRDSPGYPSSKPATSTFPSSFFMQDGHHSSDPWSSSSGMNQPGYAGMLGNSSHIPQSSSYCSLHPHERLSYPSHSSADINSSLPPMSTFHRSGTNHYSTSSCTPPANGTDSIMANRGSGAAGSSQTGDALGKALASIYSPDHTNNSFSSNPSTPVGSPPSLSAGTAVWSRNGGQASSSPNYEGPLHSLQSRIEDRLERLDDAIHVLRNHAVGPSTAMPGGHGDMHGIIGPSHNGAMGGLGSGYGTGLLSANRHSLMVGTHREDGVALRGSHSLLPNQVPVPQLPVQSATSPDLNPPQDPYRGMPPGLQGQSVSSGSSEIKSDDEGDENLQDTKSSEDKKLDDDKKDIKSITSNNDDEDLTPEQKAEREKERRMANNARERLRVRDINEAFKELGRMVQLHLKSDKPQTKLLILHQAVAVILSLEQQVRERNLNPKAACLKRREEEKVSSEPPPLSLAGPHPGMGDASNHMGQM

Sequence of Transcription factor SOX-17 (Mus musculus), Q61473 G103R (Q61473 whole entry G103R): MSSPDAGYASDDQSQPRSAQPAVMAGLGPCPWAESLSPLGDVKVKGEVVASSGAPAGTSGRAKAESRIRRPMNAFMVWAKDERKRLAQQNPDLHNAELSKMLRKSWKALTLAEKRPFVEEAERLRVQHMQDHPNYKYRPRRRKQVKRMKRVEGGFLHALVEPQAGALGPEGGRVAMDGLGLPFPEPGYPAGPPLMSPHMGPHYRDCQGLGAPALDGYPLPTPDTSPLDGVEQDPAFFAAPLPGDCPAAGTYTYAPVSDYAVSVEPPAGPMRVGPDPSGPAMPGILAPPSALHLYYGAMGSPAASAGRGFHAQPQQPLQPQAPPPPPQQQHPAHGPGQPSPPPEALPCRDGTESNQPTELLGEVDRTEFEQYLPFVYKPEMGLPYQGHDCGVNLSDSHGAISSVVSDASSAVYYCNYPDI

Substance: Transcription factor SOX-17 (Mus musculus), Q61473 G103R
- effect of a mutation on the interaction: disrupting interaction
